# In patent US20160348112:
# Target: Clumping factor A (ClfA) (Staphylococcus aureus NRS384 (USA300)) (UniProt Q2G015)
# Test: filter
# Details: BndU at every n (W); full-length clone also has fixed flanking regions not printed [BndU at 2,4,7,8,14,20,21,27,29,32,33,34,35,36,40]; SB18T, 5 mM MgCl2; full-length aptamer
# Clumping factor A (ClfA) (Staphylococcus aureus NRS384 (USA300)), sequence (Q2G015 40-893): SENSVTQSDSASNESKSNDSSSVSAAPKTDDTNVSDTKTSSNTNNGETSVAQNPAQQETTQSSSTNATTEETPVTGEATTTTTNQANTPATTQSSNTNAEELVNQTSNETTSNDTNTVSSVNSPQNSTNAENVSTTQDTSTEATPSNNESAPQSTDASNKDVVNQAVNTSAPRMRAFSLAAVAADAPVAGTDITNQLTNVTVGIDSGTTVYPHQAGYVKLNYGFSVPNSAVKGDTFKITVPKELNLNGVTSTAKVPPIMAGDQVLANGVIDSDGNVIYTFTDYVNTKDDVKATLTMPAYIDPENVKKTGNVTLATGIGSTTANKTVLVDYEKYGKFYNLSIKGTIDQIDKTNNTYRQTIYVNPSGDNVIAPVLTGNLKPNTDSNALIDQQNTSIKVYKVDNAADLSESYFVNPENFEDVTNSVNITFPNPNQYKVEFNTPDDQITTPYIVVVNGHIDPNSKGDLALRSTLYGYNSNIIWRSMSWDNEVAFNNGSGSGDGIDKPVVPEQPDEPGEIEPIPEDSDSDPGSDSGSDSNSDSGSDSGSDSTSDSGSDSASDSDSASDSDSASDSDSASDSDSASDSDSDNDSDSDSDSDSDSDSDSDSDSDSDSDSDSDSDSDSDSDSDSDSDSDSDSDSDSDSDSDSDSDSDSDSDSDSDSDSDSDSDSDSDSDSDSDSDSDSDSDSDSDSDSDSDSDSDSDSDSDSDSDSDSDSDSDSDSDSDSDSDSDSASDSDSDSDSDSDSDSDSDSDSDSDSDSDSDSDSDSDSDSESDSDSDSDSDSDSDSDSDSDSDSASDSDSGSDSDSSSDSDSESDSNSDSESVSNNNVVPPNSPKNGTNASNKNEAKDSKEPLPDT
sequence,measurement,value
ATCTGGTTCAAAGTGGCGATTGGGCATCTGGTTTTTAAGT [4503-73],Kd,0.79 nM
